Data as given in patent US20080044422A1 (Janssen / Centocor, published 2008).

Target: the molecule itself
Assay: SELDI mass spectrometry of the purified protein alone, non-reduced sample (self-association)
Protocol: Recombinantly expressed proteins were analyzed by SDS-PAGE, anti-myc western blot, MALDI-MS, and SEC HPLC. In addition, O-linked glycosylation was analyzed by first treating the proteins with O-glycosidase with and without sialidase. The released O-glycans were labeled with anthranilic acid and analyzed by HPLC. The truncated CNGH0010.2 protein containing exons 1-5, 8, 9, 12, and 13 (SEQ ID NO:41) is predicted to be 37.5 kDa. […] In addition, it appears as if the molecule has a propensity to multimerize, as non-reduced analysis by SDS-PAGE, SELDI-MS (FIG. 5), and SEC-HPLC (FIG. 6), all indicate that dimeric and trimeric forms of the truncated CNGH0010.2 molecule exist in solution.

B1: truncated CNGH0010.2 protein containing exons 1-5, 8, 9, 12, and 13 (other)
chain: GPLQSGEESTGTNIGEALGHGLGDALSEGVGKAIGKEAGGAAGSKVSEALGQGTREAVGTGVRQVPGFGAADALGNRVGEAAHALGNTGHEIGRQAEDVIRHGADAVRGSWQGVPGHNGAWETSGGHGIFGSQGGLGGQGQGNPGGLGTPWVHGYPGNSAGSFGMNPQGAPWGQGGNGGPPNFGTNTQGAVAQPGYGSVRASNQNEGCTNPPPSGSGGGSSNSGGGSGSQSGSSGSGSNGDNNNGSSSGGSSSGSSSGGSSGGSSGGSSGNSGGSRGDSGSESSWGSSTGSSSGNHGGSGGGDGHKPGCEKPGNEARGSGESGIQGQGSSWGSGGGDAVGGVNTVNSETS
modifications: O-linked oligosaccharides (sites not given)
notes: The signal peptide (probably residues 1-21, same exon 1) is cleaved in the secreted protein; also called CNGH0010 (exons 1-13); His tagged CNGH0010.2 fusion protein; not shown: C-terminal hexa-His (myc-His vector) tag
B1: binds.
